The values below come from paper doi:10.64898/2025.12.12.693935, “Tetraspanin CD82 reduces the formation of CADM1 oligomers” (bioRxiv, 2025).

Data set [1] deals with the molecule itself. Nature of the data set: SEC; F-SEC on tryptophan fluorescence, Superose 6 increase 10/300, purified protein injected at 0.15 to 80 µM; 150 mM NaCl, 25 mM HEPES pH 7.5, 0.025% DDM. On the technique in general: In gel filtration, larger molecules generally elute earlier.
Data set [2] deals with the molecule itself. As to the kind of experiment: SEC; F-SEC on the eGFP signal, Superdex 200 increase 10/300 GL, strep-tactin-purified samples of individually expressed or co-expressed proteins; 150 mM NaCl, 25 mM HEPES pH 7.5, 0.025% DDM.
Data set [3] concerns the molecule itself. As to the kind of experiment: SEC-MALS; SEC-MALLS, Superdex 200 increase 10/300 GL, 200 mM NaCl, 25 mM HEPES 7.5, 0.4 mL/min; CADM1(ECD)-His6 at 160, 80, 40 and 20 µM; monomer to dimer.

B1: CADM1-StrepII3 (natural protein, human, UniProt Q9BY67 45-442, looked up)
chain: QNLFTKDVTVIEGEVATISCQVNKSDDSVIQLLNPNRQTIYFRDFRPLKDSRFQLLNFSSSELKVSLTNVSISDEGRYFCQLYTDPPQESYTTITVLVPPRNLMIDIQKDTAVEGEEIEVNCTAMASKPATTIRWFKGNTELKGKSEVEEWSDMYTVTSQLMLKVHKEDDGVPVICQVEHPAVTGNLQTQRYLEVQYKPQVHIQMTYPLQGLTREGDALELTCEAIGKPQPVMVTWVRVDDEMPQHAVLSGPNLFINNLNKTDNGTYRCEASNIVGKAHSDYMLYVYDPPTTIPPPTTTTTTTTTTTTTILTIITDSRAGEEGSIRAVDHAVIGGVVAVVVFAMLCLLIILGRYFARHKGTYFTHEAKGADDAADADTAIINAEGGQNNSEEKKEYFI
notes: CADM1 excluding the signal peptide, human, UniProtKB Q9BY67.2; called full-length in the results; expressed behind the vector's N-terminal signal peptide; also called full-length CADM1-StrepII3; source: HEK293-E+ cells, transiently transfected, solubilized in DDM, purified (strep-tactin, SEC); not shown: StrepII3, C-terminal, kept
Consider B1, for which the binding result in data set [1] is on record as “binds”.

B2: CADM1-eGFP-StrepII3 (natural protein, human, UniProt Q9BY67 45-442, looked up)
chain: QNLFTKDVTVIEGEVATISCQVNKSDDSVIQLLNPNRQTIYFRDFRPLKDSRFQLLNFSSSELKVSLTNVSISDEGRYFCQLYTDPPQESYTTITVLVPPRNLMIDIQKDTAVEGEEIEVNCTAMASKPATTIRWFKGNTELKGKSEVEEWSDMYTVTSQLMLKVHKEDDGVPVICQVEHPAVTGNLQTQRYLEVQYKPQVHIQMTYPLQGLTREGDALELTCEAIGKPQPVMVTWVRVDDEMPQHAVLSGPNLFINNLNKTDNGTYRCEASNIVGKAHSDYMLYVYDPPTTIPPPTTTTTTTTTTTTTILTIITDSRAGEEGSIRAVDHAVIGGVVAVVVFAMLCLLIILGRYFARHKGTYFTHEAKGADDAADADTAIINAEGGQNNSEEKKEYFI
notes: CADM1 excluding the signal peptide, human, UniProtKB Q9BY67.2; expressed behind the vector's N-terminal signal peptide; source: HEK293-E+ cells, transiently transfected, solubilized in DDM, purified (strep-tactin); not shown: eGFP, C-terminal, kept; StrepII3, C-terminal, kept
For B2, in data set [2], the binding result is “binds”.

B3: CADM1(ECD)-His6 (domain or fragment, human, UniProt Q9BY67 45-374, looked up)
chain: QNLFTKDVTVIEGEVATISCQVNKSDDSVIQLLNPNRQTIYFRDFRPLKDSRFQLLNFSSSELKVSLTNVSISDEGRYFCQLYTDPPQESYTTITVLVPPRNLMIDIQKDTAVEGEEIEVNCTAMASKPATTIRWFKGNTELKGKSEVEEWSDMYTVTSQLMLKVHKEDDGVPVICQVEHPAVTGNLQTQRYLEVQYKPQVHIQMTYPLQGLTREGDALELTCEAIGKPQPVMVTWVRVDDEMPQHAVLSGPNLFINNLNKTDNGTYRCEASNIVGKAHSDYMLYVYDPPTTIPPPTTTTTTTTTTTTTILTIITDSRAGEEGSIRAVDH
notes: ectodomain of CADM1, human, UniProtKB Q9BY67.2, without the natural signal peptide; also called His-tagged CADM1 ectodomain; soluble CADM1(ECD)-His6; source: HEK293-E+ cells, secreted into the supernatant, purified (Ni Sepharose excel, SEC); not shown: His6, C-terminal, kept
As a reminder, the stoichiometry N is a count of units in the complex or per binding partner. For B3, the “stoichiometry N” value in data set [3] was 2.
